Data as given in paper PMC6471090.

Tests used:
[1] = molecular target: wild-type green fluorescent protein (GFP) (Aequorea victoria) [GFP: P42212]; test: single-molecule photobleaching step counting and fluorescence intensity distribution (TIRFM); purified protein, 0.17 μg/mL solution, single spots imaged on the coverslip surface; 473-nm laser; self-association (monomer to dimer)
[2] = molecular target: wild-type green fluorescent protein (GFP) (Aequorea victoria) [GFP: P42212]; test: single-molecule photobleaching step counting and fluorescence intensity distribution (TIRFM); purified protein, 0.57 μg/mL solution, single spots imaged on the coverslip surface; 473-nm laser; self-association (monomer to dimer)

In the case of “wild-type green fluorescent protein (GFP) (from UniProt P42212 1-238) (natural protein)”, the percent of spots with one-step photobleaching (monomers) [1] is reported as 96.5%, the percent of spots with two-step photobleaching (dimers) [1] is reported as 3.5% and the stoichiometry N [1] is reported as 2. For the same substance, the percent of spots in the major intensity population (monomers) [2] was 97% and the percent of spots with two-step photobleaching (dimers) [2] was 8.6%.
